# Source: the nanobody polyreactivity screen of Harvey et al. (2022)
# Test: yeast display, Sf9 membrane polyspecificity reagent, FACS + sequencing; frameworks hold sequencing errors
# Outline: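 Nanobodies came from a synthetic yeast display library in Saccharomyces cerevisiae BJ5465, induced with galactose for 36–48 hours and stained for 1 hour at 4 °C with 10% biotinylated, detergent-solubilized Sf9 membrane reagent. Cells were enriched on streptavidin microbeads and then FACS-sorted, with low and high (top ~1%) gates set on anti-HA fluorescence for expression and streptavidin fluorescence for reagent binding. Each polyreactivity label reflects the gate a clone came from. Genes were amplified by colony PCR, sequenced by MiSeq 2 × 250 and filtered by CDR length.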
row,Sequence,polyreactivity (PSR sort gate)
1,QVQLVESGGGLVQAGGSLRLSCAASGLTFEKYAMGWYRQAPGKERELVAAISQDGGSTYYADSVKGRFTISRDNAKNTVYLQMNSLKPEDTAVYYCAAEDPDSWLPWDLFDYWGQGTQVTVSS,low polyreactivity
2,QVQLVESGGGLVQAGGSLRLSCAASGSTFDENAMGWYRQAPGKERELVAVISDSGGSTYYADSVKGRFTISRDNAKNTVDLQMNSLKPEVTAVYYCAKDVPPEYPTSSYDYWGQGTQVTVSS,low polyreactivity
3,QVQLVESGGGLVQAGGSLRLSCAASGFTFSFYAMGWYRQAPGKERELVAGISKRGGSTYYADSVKGRFTISRDNAKNTVYFLMNSLNPEDTAVYYCAARWYARSLTRFNYWGQGTQVTVSS,high polyreactivity
4,QVQLVESGGGLVQAGGSLRLSCAASGSIFQYNAMGWYRQAPGTERELVAAITWTGTSTYADSVKGRFTISRDNAKNTVYLQMNSLKPEDTAVYYCAARYYAPRWFRYDYWGQGTQVTVSS,low polyreactivity
5,QVQLVESGGGLVQAGGSLRLSCAASGIIFSYYAMGWYRQAPGKERELVAAISRSGARTSYADSVKGRFTISRDNAKNTVYLQMNSLKPEDTAVYYCAARTQGTRYRGEYWGQGTQVTVSS,high polyreactivity
6,QVQLVESGGGLVQAGGSLRLSCAASGSTFRKYAMGWYRQAPGKEREFVAAITWSTGTTYYADSVKGRFTISRDNAKNNVYLQMNSLKPEDTAVYYSAADSQPPHELDESIEHESWGQGTQVTVSS,low polyreactivity
7,QVQLVESGGGLVQAGGSLRLSCAASGFIFRYYAMGWYRQAPGKERELVAAITSRGSSTYYADSVKGRFTISRDNAKNTVYLQMNSLKPDDTAVYYCAARLRGDYVRYDYWGQGTQVTVSS,high polyreactivity
8,QVQLVESGGVLVQAGGSLRLSCAATVFIFKGNAMGWYRQAPGKEREFVADISARGGSTYYADSVKGRFTISRDNAKNTVYLQMNTLKPEDTAVYYCAATTGLYTRYGYWGQGTQVTVSS,high polyreactivity
9,QVQLVESGGGLVQAGGSLRLSCAASGLTFYKNVMGWYRQAPGKERELVAAISSSGGSTYYADSVKGRFTISRDNAKNTVYLQMNSLKPDDTAVYYGAADDPLYTPYEFDYWGQGTQVTVSS,low polyreactivity
10,QVQLVESGGGLVQAGGSLRLSCAASGLTFVFYAMGWYRQAPGKERELVAAISRRGGRTYYADSVKGRYTISRDNAKNTVYVQMNSLKPEDTAVYYCNARVRSHRCNYWGQGTQVTVSS,high polyreactivity
11,QVQLVESGGGLVQAEGSLRLSCAASGRTSVLYAMGWNRQAPGKEREFVAAITWNSGSTYYADSVKGRFTISRDNAKNTVYIQMTRLKPEDTAVYYCNADYYFSSYRSTYDYWGQGTQVTVSS,low polyreactivity
12,QVQHVESGGGLVQAGGSLRLSCAASGRIFHGYAMGWYRQSPGKERELVAAITSRGGSTYYADSVKGRFTISRDNAKNTVYLQMNSLKPEDTAVYYCNAGRYLYAFDYWGQGTQVTVSS,low polyreactivity
13,QVQLVESGAGLVQAAGSLRLSCDASGYIFEWNAMGWYRQAPGKERELVASIDSDGSTYYADSVKGRFTISRDNAKNTVYLQMNSLKPEDTAVYYSAKSIDGWYWRRRRYDYWGQGTQVTVSS,low polyreactivity
14,QVQLVESGGGLVQAGGSHRLSCAASGRIYGDYAMGWYRQAPGKERELVAAINSSGTSTIYADSVKGRFTISRDNAKNTVYLQLNCLKPEDTAVYYCADLFTFKYDYWGQGTQVTVSS,low polyreactivity
15,QVQLVESCGGLVQAGGSLRLSCAPSGSIFVCYAMGWYRQAPWKEREFVAAITSGRGTYYADSVKGRFTRSRDNAQITVYLQMNSLKPEDTEVYYCNTVWRTRSFRAPAVAYGYWGQGTQVTVSS,high polyreactivity
16,QVQLVESGGGLVQAGGTLRLSCAASGSILQYNAMGWYRQATVKVSELVAAISRTGGSTYYADSVKGRFTISRDIAMNNLYLQMNSLKPEDTAVYYCNVYLGILYKYDYWGQGNQVTVSS,low polyreactivity
17,QVQLVESGGGLVQAGGSLRLSCAASGSIFRIYAMGWYRLEPGKERELVSGISKSVGSTYYADSVKGRFTISRDNAKNTVYLQMNSLKTEDTAVYYCNARRPSWGLDKYDYWGQGTQVTVSS,low polyreactivity
18,QVQLVESGGGLVQAGGSLRLSCAASGRTFSRYAMGWYRQAPGKERELVAAITWSGGRTYYADSVKGRFTISSDNAKNTVYLQMNSLKPEDTAVYYCAASYRCYKHADPLYNYWGQGTQVTVSS,low polyreactivity
19,QVQLVESGGGLVQAGGSLRLSCAASGSIFPGNAMGWYRPAPGKERELVAVIDFSGASTYYADSVKGRYTISRDNAKNTVYLQMNCLKPEVTADFWGQGTQVTVSS,low polyreactivity
20,QVQLVESGGGLVQAGGSLRLSCAATGFTFFRYAMGWYRQARGKERELVAAITYSGSSTYYADSVKGRFTISRDNAKNTGYLQRNSLKPEDTAVYYCNAVQGFYSWVLYYYAYDYWGQGTQVTVSS,high polyreactivity
21,QVQLVESGGRLVQAGRSLRLSCAASGGTFQRYVMGWYRQAPGKERELVAAISRSGSTYADSVKGRFTISRDNAKNTGYLQMNSLKPEDTAVYYCNVVRYYRYYLHGYDYWGQGTQVTVSS,high polyreactivity

row,Sequence,polyreactivity (PSR sort gate)
1,QVQLVESGGGLVQAGGSLRLSCAASASIFPRNTMGWYRPAPGKERELVAAISRSGGSTYYADSVKGRFTISRDNAKNTVYLQMNSLKPEDTAVYYCAVSGGTSRRYYYWGQGTQVTVSS,high polyreactivity
2,QVQLVESGGGLVQAGGSLRLSSAASGSTFWNNVMGSYRQATGKERELVAAITYSGGITYADSVKGRFTISRDNAKNTVYLEMNSLKPEDTAVYYCAADSKYKYDSWGQGTQVTVSS,low polyreactivity
3,QVQLVESGGGLDQAGGSLRLSCAASGLIFYYYALGWYRQAPGKERELVAAISSRGSSTYYADSVKGRFTISRDNAKKTVYLQMNSLKPEDTAVYYCAADSVRKYFGYDYWGQGTQVTVSS,high polyreactivity
4,QVQLVESGGGLVQAGGSLRLSCAASGFIFRYNTMGWYRQEPGKERELVAAISKSGGRTYYADSVKGRFTISRDNAMNTVYLQMNSLNPEDTAVYYCAATLSYTGSKRYDYWGQGTQVTVSS,high polyreactivity
5,QVQLVESGGGLVQAGGSLRLSCAASGGTQVKYAMGWYRQAPGKERELVAAISRSTGNTYYADSVKGRFTISRDNAKNTVYLQMNSLKPEDTAVYYCAALKYTVGGKFGYWGQGTQVTVSS,high polyreactivity
6,QVQLVESGGGLVQAGGSLRVSCAASGSIFSYYAMGWYRQAPGKEREFVAAISWSGGSTYYADSVKGRFTISRDNAKNTVYLQMNSLKPEDTAVYYCAAELSLSWLVPDVPYYYWGQGTQVTVSS,low polyreactivity
7,QVQLVESGGGLVQAGGSLRLSCAASGSIYWYAMGWYRQAPGKERELVAAISRRGGSTYYADSVKGRFTISRDNDKNTVYLQMNSLKPEDTAVYYCAVGIYGEYDYWGQGTQVTVSS,high polyreactivity
8,QVQLVESGGGLVQAGGSLRLSCAASGRTFYRYAMGWYRQAPGKERELVAAMSRSGTTYYADSVKGRFTISRDNAQNTVYFQMNSLKPEDTALYYCAAKPAARQRGGDYWGQGTQVTVSS,high polyreactivity
9,QVQLVESGGGLVQAGGRLRLSCAASGFIFDSNTMGWYRQAPGKERELVAGITRRGGSTYYADSVKGRFTISRDNAKNSVYLQMNSLNPEDTAVYYCATAGTYTGGEGYWGQGTQVTVSS,high polyreactivity
10,QVQLVESGGGLVQAGGSLRLSCAASGFTFGYYAMGWYRQAPGKERELVAAISKSGGSTYYADSVKGRFTISRDNAKNTVYLQMNSLKPEDCAVYYCAAIASIRGYYYWGQGTQVNVSS,high polyreactivity
11,KVQLVESGLGLVQAGGSLRISCAASGSIFTQYTMGWYRQAHGKERELVASISDSGGSTYYADSVKGRFTISRDNAKNTVYLQMNSLKPEDTSVYYCASRHDRPRESNPYDYWGQGTQVTVSS,low polyreactivity
12,QVQLVESVVCLVQAGGSLRLSCAASGSIFRSYAMGWYRQAPGKERELVASISRRGGSTYYADSVKGRFTISRDNAKNTVYLQMNSLKPEDTAVYYCAAVGYNSRVSTTPSEMYYWGQGTQVTVSS,high polyreactivity
13,QVQLVDSGGGLVQAGGSLRLSCAASGSIIGVNAMGWYRQAPGKERELVAAISWSGSSTRYADSVKGRFTISRDNAKNTVYLQMNSLKPEDTAVYYCAAEAQTKWWDYYYWGQGTQVTVSS,high polyreactivity
14,QVQLVESGGGLVQAGGSLRLSCAASGSIFTPNAMGWYRQAPGKERELVAAISSSSDRTYYADSVKGRFTISRDNAKNTVYLQMNSLKPEDTAVYYCAAYAQKRYYWGQGTQVTVSS,high polyreactivity
15,QVQLVESGGGLVQAGGSLRLSCAASGLTFYYNAMGWYRPAPGKERELVAAITWSTDSTYYADSVKGRFTISRDNAKNTVYLQMNSLKPEDTAVYYCAAAVDAFTNKQYYYWGQGTQVTVSS,low polyreactivity
16,QVQLVESGGGLVLAGGSRRLSCASSGSTFPLYTMGWYRQAPGKERELVAAINYGGTSTYYADSVKGRFTFSRVKAKNTVYLQRNSLKPEDTAVYYCAAERYFLYLCRKFGYWGQGTQVTVSW,high polyreactivity
17,QVQLVESGGGLVQAGGSLRLSCAASGSIFRGYAMGWYRQAPGKERELVAAITSSGGSTNYADSVKGRFTISRDNAKNTVYLQMNSLKPEDTAVYYCAKAPGLWHLIQRMDYWGQGTQVTVSS,low polyreactivity
18,QVQLVESGGGLVQAGGSLRLSCAASGRIFTSYAMGWYRQAPGKEREFVAAITRRGGSTYYADSVKGRFTISRDNAKNTVYLQMKSLKQEDTAVYYCAADIYSVPYPSWARYDYWGQGTQVTVSS,high polyreactivity
19,QVQLVESGGGLDQARGTLRLSCAASGITITLYAMGWYRQTPGKESELVAAISRGGGTTNYADSVKGRFTISRDNAKNTVFLELNSLKPEDNAVYYCAAAYTIYWFSYRVLYYYWGQGTQVTVSS,low polyreactivity
20,QVQLVESGGGLVQAGGSLRLSCAASGSIFADNGMGWYRQAPGKERELVAAINSGSTYADSVKGRFTISRDNAKNTVYLQMNSLKPEDTAVYYCNADGVTSGRVDYWGQGTQVTVSS,low polyreactivity
